The test system of data set [1] is HeLa Kyoto. The data set can be described thus: thermal stability score vs G1/S (z-score of summed log2 fold changes over temperatures); higher = more thermally stable than in G1/S.
Data set [2] has as its system HeLa Kyoto. In words: solubility in G1/S (NP-40 vs SDS abundance) (log2 ratio); higher = more soluble. To be noted: cell cycle stage: G1/S.
In data set [3] the test system is HeLa Kyoto. The data set can be described thus: solubility change mitosis vs G1/S (difference of NP-40 vs SDS log2 ratios) (log2 ratio difference); higher = more soluble in mitosis.
Data set [4] concerns HeLa Kyoto. The data set can be described thus: melting temperature (median over replicates), in situ; higher = more thermally stable.
The mark [5] stands for this setting: cell cycle stage: early G1 (4.5 h after nocodazole release).

The results in this text go back to the supplement of paper PMC5998384.
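Throughout, for melting temperature (median over replicates), in situ: HeLa Kyoto cells synchronized by double thymidine or nocodazole block, proteins quantified by TMT10plex mass spectrometry, three independent biological replicates.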
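Throughout, for solubility change mitosis vs G1/S (difference of NP-40 vs SDS log2 ratios): synchronized HeLa Kyoto cells (double thymidine block for G1/S, nocodazole release for mitosis), protein amounts in NP-40 versus SDS lysates quantified by mass spectrometry, three biological replicates.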
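Throughout, for solubility in G1/S (NP-40 vs SDS abundance): HeLa Kyoto cells arrested at G1/S by double thymidine block, proteins quantified by TMT10plex mass spectrometry in mild NP-40 versus SDS extracts, three biological replicates.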
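Throughout, for thermal stability score vs G1/S (z-score of summed log2 fold changes over temperatures): synchronized HeLa Kyoto cells, proteins quantified by TMT10plex mass spectrometry, three biological replicates, mitosis taken 0.5 h after nocodazole release, G1/S directly after double thymidine block.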

Consider “MSSFGAGKTKEVIFSVEDGSVKMFLRGRPVPMMIPDELAPTYSLDTRSELPSCRLKLEWVYGYRGRDCRANLYLLPTGEIVYFVASVAVLYSVEEQRQRHYLGHNDDIKCLAIHPDMVTIATGQVAGTTKEGKPLPPHVRIWDSVSLSTLHVLGLGVFDRAVCCVGFSKSNGGNLLCAVDESNDHMLSVWDWAKETKVVDVKCSNEAVLVATFHPTDPTVLITCGKSHIYFWTLEGGSLSKRQGLFEKHEKPKYVLCVTFLEGGDVVTGDSGGNLYVWGKGGNRITQAVLGAHDGGVFGLCALRDGTLVSGGGRDRRVVLWGSDYSKLQEVEVPEDFGPVRTVAEGHGDTLYVGTTRNSILQGSVHTGFSLLVQGHVEELWGLATHPSRAQFVTCGQDKLVHLWSSDSHQPLWSRIIEDPARSAGFHPSGSVLAVGTVTGRWLLLDTETHDLVAIHTDGNEQISVVSFSPDGAYLAVGSHDNLVYVYTVDQGGRKVSRLGKCSGHSSFITHLDWAQDSSCFVTNSGDYEILYWDPATCKQITSADAVRNMEWATATCVLGFGVFGIWSEGADGTDINAVARSHDGKLLASADDFGKVHLFSYPCCQPRALSHKYGGHSSHVTNVAFLWDDSMALTTGGKDTSVLQWRVV [EML2]”, for which the thermal stability score was -0.964 with HeLa Kyoto [1] (setting [5]) and -1.37 in the data set on HeLa Kyoto [1] (cell cycle stage: mitosis). The “solubility in G1/S (log2)” value in the data set on HeLa Kyoto [2] is -0.16. The “solubility change mitosis (log2)” value in the data set on HeLa Kyoto [3] was -0.207. The results for the melting temperature with HeLa Kyoto [4] (cell cycle stage: G1/S) and in the data set on HeLa Kyoto [4] (cell cycle stage: mitosis) were 53.1 °C and 53.4 °C, respectively.

Take “MEPDIIRMYSSSPPPLDNGAEDDDDDEFGEFGGFSEVSPSGVGFVDFDTPDYTRPKEEFVPSNHFMPIHEFSENVDSLTSFKSIKNGNDKDITAELSAPVKGQSDVLLSTTSKEIISSEMLATSIDGMERPGNLNKVVEQRQNVGTLESFSPGDFRTNMNVVHQNKQLESCNGEKPPCLEILTNGFAVLETVNPQGTDDLDNVADSKGRKPLSTHSTEYNLDSVPSPAEEFADFATFSKKERIQLEEIECAVLNDREALTIRENNKINRVNELNSVKEVALGRSLDNKGDTDGEDQVCVSEISIVTNRGFSVEKQGLPTLQQDEFLQSGVQSKAWSLVDSADNSEAIRREQCKTEEKLDLLTSKCAHLCMDSVKTSDDEVGSPKEESRKFTNFQSPNIDPTEENDLDDSLSVKNGDSSNDFVTCNDINEDDFGDFGDFGSASGSTPPFVTGTQDSMSDATFEESSEHFPHFSEPGDDFGEFGDINAVSCQEETILTKSDLKQTSDNLSEECQLARKSSGTGTEPVAKLKNGQEGEIGHFDSVPNIQDDCNGFQDSDDFADFSSAGPSQVVDWNAFEDEQKDSCSWAAFGDQQATESHHRKEAWQSHRTDENIDTPGTPKTHSVPSATSKGAVASGHLQESATSVQTALLNRLERIFEACFPSILVPDAEEEVTSLKHLLETSTLPIKTREALPESGELLDVWTELQDIHDAHGLRYQWGGSHSNKKLLSSLGIDTRNILFTGNKKQPVIVPMYAAGLGMLEPTKEPLKPLSAAEKIASIGQTATMSPDMNTCTSDQFQESLPPVQFDWSSSGLTNPLDASGGSTLLNLDFFGPVDDSSSSSSTTIPGVDPELYELTTSKLEISTSSLKVTDAFARLMSTVEKTSTSTRKPKREEHLSEEAIKVIAGLPDLTFMHAKVLMFPATLTPSTSSQEKADG [AFTPH]”: the thermal stability score in the data set on HeLa Kyoto [1] (setting [5]) was -0.487; with HeLa Kyoto [1] (cell cycle stage: mitosis) it was -1.23. For the same sequence, the “solubility in G1/S (log2)” value with HeLa Kyoto [2] is -0.151. The “solubility change mitosis (log2)” value in the data set with HeLa Kyoto [3] was -0.029. The melting temperature stood at 52 °C in the data set on HeLa Kyoto [4] (cell cycle stage: G1/S) and 51.9 °C in the data set on HeLa Kyoto [4] (cell cycle stage: mitosis).

With “MVELMFPLLLLLLPFLLYMAAPQIRKMLSSGVCTSTVQLPGKVVVVTGANTGIGKETAKELAQRGARVYLACRDVEKGELVAKEIQTTTGNQQVLVRKLDLSDTKSIRAFAKGFLAEEKHLHVLINNAGVMMCPYSKTADGFEMHIGVNHLGHFLLTHLLLEKLKESAPSRIVNVSSLAHHLGRIHFHNLQGEKFYNAGLAYCHSKLANILFTQELARRLKGSGVTTYSVHPGTVQSELVRHSSFMRWMWWLFSFFIKTPQQGAQTSLHCALTEGLEILSGNHFSDCHVAWVSAQARNETIARRLWDVSCDLLGLPID [RDH11]”, the thermal stability score was -0.184 with HeLa Kyoto [1] (setting [5]) and 0.26 with HeLa Kyoto [1] (cell cycle stage: mitosis). In addition, the “solubility in G1/S (log2)” value in the data set with HeLa Kyoto [2] was -0.0695. Also, in the data set on HeLa Kyoto [3], the “solubility change mitosis (log2)” value was -0.137. Moreover, the melting temperature in the data set with HeLa Kyoto [4] (cell cycle stage: G1/S) stood at 49.5 °C; in the data set on HeLa Kyoto [4] (cell cycle stage: mitosis) it was 50.2 °C.

Turning to “MADRDSGSEQGGAALGSGGSLGHPGSGSGSGGGGGGGGGGGGSGGGGGGAPGGLQHETQELASKRVDIQNKRFYLDVKQNAKGRFLKIAEVGAGGNKSRLTLSMSVAVEFRDYLGDFIEHYAQLGPSQPPDLAQAQDEPRRALKSEFLVRENRKYYMDLKENQRGRFLRIRQTVNRGPGLGSTQGQTIALPAQGLIEFRDALAKLIDDYGVEEEPAELPEGTSLTVDNKRFFFDVGSNKYGVFMRVSEVKPTYRNSITVPYKVWAKFGHTFCKYSEEMKKIQEKQREKRAACEQLHQQQQQQQEETAAATLLLQGEEEGEED [PURA]”, the results for the thermal stability score in the data set on HeLa Kyoto [1] (setting [5]) and in the data set on HeLa Kyoto [1] (cell cycle stage: mitosis) were -2.25 and -4.83, respectively. In addition, the “solubility in G1/S (log2)” value in the data set on HeLa Kyoto [2] amounted to 0.415. Further, the “solubility change mitosis (log2)” value in the data set on HeLa Kyoto [3] worked out at 0.112. Besides, the melting temperature amounted to 58 °C in the data set on HeLa Kyoto [4] (cell cycle stage: G1/S) and 56.5 °C in the data set on HeLa Kyoto [4] (cell cycle stage: mitosis).

Take “MSERCCSRYSSGASIGCTPTSTQAKMVSKRIAQETFDAAVRENIEEFAMGPEEAVKEAVEQFESQGVDLSNIVKTAPKVSADGSQEPTHDILQMLSDLQESVASSRPQEVSAYLTRFCDQCKQDKACRFLAAQKGAYPIIFTAWKLATAGDQGLLLQSLNALSVLTDGQPDLLDAQGLQLLVATLTQNADEADLTCSGIRCVRHACLKHEQNRQDLVKAGVLPLLTGAITHHGHHTDVVREACWALRVMTFDDDIRVPFGHAHNHAKMIVQENKGLKVLIEATKAFLDNPGILSELCGTLSRLAIRNEFCQEVVDLGGLSILVSLLADCNDHQMRDQSGVQELVKQVLSTLRAIAGNDDVKDAIVRAGGTESIVAAMTQHLTSPQVCEQSCAALCFLALRKPDNSRIIVEGGGAVAALQAMKAHPQKAGVQKQACMLIRNLVAHGQAFSKPILDLGAEALIMQARSAHRDCEDVAKAALRDLGCHVELRELWTGQRGNLAP [ARMC6]”: the thermal stability score is 0.787 in the data set with HeLa Kyoto [1] (setting [5]) and 2.44 with HeLa Kyoto [1] (cell cycle stage: mitosis). Further, in the data set with HeLa Kyoto [2], the “solubility in G1/S (log2)” value was determined as 0.319. Also, the “solubility change mitosis (log2)” value in the data set on HeLa Kyoto [3] was -0.0993. In addition, the melting temperature in the data set with HeLa Kyoto [4] (cell cycle stage: G1/S) is 46.8 °C; in the data set with HeLa Kyoto [4] (cell cycle stage: mitosis), 47 °C.

On to “MGLYAAAAGVLAGVESRQGSIKGLVYSSNFQNVKQLYALVCETQRYSAVLDAVIASAGLLRAEKKLRPHLAKVLVYELLLGKGFRGGGGRWKALLGRHQARLKAELARLKVHRGVSRNEDLLEVGSRPGPASQLPRFVRVNTLKTCSDDVVDYFKRQGFSYQGRASSLDDLRALKGKHFLLDPLMPELLVFPAQTDLHEHPLYRAGHLILQDRASCLPAMLLDPPPGSHVIDACAAPGNKTSHLAALLKNQGKIFAFDLDAKRLASMATLLARAGVSCCELAEEDFLAVSPSDPRYHEVHYILLDPSCSGSGMPSRQLEEPGAGTPSPVRLHALAGFQQRALCHALTFPSLQRLVYSTCSLCQEENEDVVRDALQQNPGAFRLAPALPAWPHRGLSTFPGAEHCLRASPETTLSSGFFVAVIERVEVPR [NSUN5]”, for which the results for the thermal stability score in the data set with HeLa Kyoto [1] (setting [5]) and in the data set on HeLa Kyoto [1] (cell cycle stage: mitosis) were 0.348 and -0.0976, respectively. In addition, in the data set with HeLa Kyoto [2], the “solubility in G1/S (log2)” value was -0.194. For the same sequence, the “solubility change mitosis (log2)” value in the data set with HeLa Kyoto [3] amounted to 0.282. Besides, the melting temperature stood at 48.7 °C with HeLa Kyoto [4] (cell cycle stage: G1/S) and 50.2 °C with HeLa Kyoto [4] (cell cycle stage: mitosis).

“MAIRKKSTKSPPVLSHEFVLQNHADIVSCVAMVFLLGLMFEITAKASIIFVTLQYNVTLPATEEQATESVSLYYYGIKDLATVFFYMLVAIIIHAVIQEYMLDKINRRMHFSKTKHSKFNESGQLSAFYLFACVWGTFILISENYISDPTILWRAYPHNLMTFQMKFFYISQLAYWLHAFPELYFQKTKKEDIPRQLVYIGLYLFHIAGAYLLNLNHLGLVLLVLHYFVEFLFHISRLFYFSNEKYQKGFSLWAVLFVLGRLLTLILSVLTVGFGLARAENQKLDFSTGNFNVLAVRIAVLASICVTQAFMMWKFINFQLRRWREHSAFQAPAVKKKPTVTKGRSSKKGTENGVNGTLTSNVADSPRNKKEKSS [TRAM1]”: the thermal stability score in the data set on HeLa Kyoto [1] (setting [5]) is -0.164; in the data set with HeLa Kyoto [1] (cell cycle stage: mitosis) it was -0.999. In addition, the “solubility in G1/S (log2)” value in the data set on HeLa Kyoto [2] was -0.0229. In addition, the “solubility change mitosis (log2)” value with HeLa Kyoto [3] was -0.0373. Moreover, the melting temperature was 52.2 °C in the data set on HeLa Kyoto [4] (cell cycle stage: G1/S) and 52.6 °C in the data set with HeLa Kyoto [4] (cell cycle stage: mitosis).

With “MLSPQRVAAAASRGADDAMESSKPGPVQVVLVQKDQHSFELDEKALASILLQDHIRDLDVVVVSVAGAFRKGKSFILDFMLRYLYSQKESGHSNWLGDPEEPLTGFSWRGGSDPETTGIQIWSEVFTVEKPGGKKVAVVLMDTQGAFDSQSTVKDCATIFALSTMTSSVQIYNLSQNIQEDDLQQLQLFTEYGRLAMDEIFQKPFQTLMFLVRDWSFPYEYSYGLQGGMAFLDKRLQVKEHQHEEIQNVRNHIHSCFSDVTCFLLPHPGLQVATSPDFDGKLKDIAGEFKEQLQALIPYVLNPSKLMEKEINGSKVTCRGLLEYFKAYIKIYQGEDLPHPKSMLQATAEANNLAAAASAKDIYYNNMEEVCGGEKPYLSPDILEEKHCEFKQLALDHFKKTKKMGGKDFSFRYQQELEEEIKELYENFCKHNGSKNVFSTFRTPAVLFTGIVALYIASGLTGFIGLEVVAQLFNCMVGLLLIALLTWGYIRYSGQYRELGGAIDFGAAYVLEQASSHIGNSTQATVRDAVVGRPSMDKKAQ [ATL3]”, the values for the thermal stability score with HeLa Kyoto [1] (setting [5]) and in the data set with HeLa Kyoto [1] (cell cycle stage: mitosis) were -0.0896 and 0.487, respectively. The “solubility in G1/S (log2)” value in the data set with HeLa Kyoto [2] was -0.00471. In the data set on HeLa Kyoto [3], the “solubility change mitosis (log2)” value is -0.139. The figures for the melting temperature with HeLa Kyoto [4] (cell cycle stage: G1/S) and in the data set on HeLa Kyoto [4] (cell cycle stage: mitosis) were 52.2 °C and 51.7 °C, respectively.
